Reference: patent publication US20180185504A1 (Regeneron, published 2018)
Where two headings read alike, the source gives them in different places.

Experiments:
Experiment in all cases: cell-based or functional assay
[1] = target: T1, human prolactin receptor (PRLR) (human, UniProt P16471 25-622)
T1 sequence: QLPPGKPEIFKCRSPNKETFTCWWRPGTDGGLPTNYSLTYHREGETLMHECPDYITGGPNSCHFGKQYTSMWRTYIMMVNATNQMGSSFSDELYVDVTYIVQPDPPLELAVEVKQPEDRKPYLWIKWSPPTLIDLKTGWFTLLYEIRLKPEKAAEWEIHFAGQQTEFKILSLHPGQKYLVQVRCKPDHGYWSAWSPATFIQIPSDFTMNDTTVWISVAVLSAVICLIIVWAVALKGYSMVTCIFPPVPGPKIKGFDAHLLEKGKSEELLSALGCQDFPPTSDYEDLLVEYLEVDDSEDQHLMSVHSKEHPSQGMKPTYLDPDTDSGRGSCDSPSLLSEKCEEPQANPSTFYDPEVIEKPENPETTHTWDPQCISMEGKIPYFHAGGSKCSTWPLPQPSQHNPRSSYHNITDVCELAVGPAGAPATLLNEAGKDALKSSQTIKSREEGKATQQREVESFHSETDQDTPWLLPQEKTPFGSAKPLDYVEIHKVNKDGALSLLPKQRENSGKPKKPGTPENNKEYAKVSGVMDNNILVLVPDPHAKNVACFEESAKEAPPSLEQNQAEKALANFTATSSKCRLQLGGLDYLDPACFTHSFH

[2] = target: T1, human prolactin receptor (PRLR); remark: listed apart in the source
[3] = target: T1, human prolactin receptor (PRLR); remark: listed apart in the source
[4] = target: T1, human prolactin receptor (PRLR); remark: listed apart in the source
[5] = target: T1, human prolactin receptor (PRLR); remark: listed apart in the source

Binder	% Kill, MCF7/ATCC cells [1] [%]	% Kill, MCF7/PRLR cells [1] [%]	% Kill, PC3/hPRLR cells [1] [%]	IC50, cell viability, MCF7/ATCC cells [1] [nM]	IC50, cell viability, MCF7/PRLR cells [1] [nM]	IC50, cell viability, PC3/hPRLR cells [1] [nM]	% Kill, T47D cells [2] [%]	IC50, cell viability, T47D cells [2] [nM]	% Kill, MCF7/ATCC cells [3] [%]	% Kill, MCF7/PRLR cells [3] [%]	IC50, cell viability, MCF7/ATCC cells [3] [nM]	IC50, cell viability, MCF7/PRLR cells [3] [nM]	% Kill, PC3/PRLR cells [4] [%]	IC50, cell viability, PC3/PRLR cells [4] [nM]	% Kill, MCF7/PRLR cells [5] [%]	% Kill, MCF7 cells [5] [%]	% Kill, T47D cells [5] [%]	IC50, cell viability, MCF7/PRLR cells [5] [nM]	IC50, cell viability, MCF7 cells [5] [nM]	IC50, cell viability, T47D cells [5] [nM]
H1H6958N2-mc-VC-PAB-MMAE (antibody, human IgG1, V domains shown, MMAE conjugated through cleavable mc-vc-PAB linker; attachment residues not stated) VH: QVQLVESGGGVVQPGRSLRLSCGASGFTFRNYGMQWVRQGPGKGLEWVTLISFDGNDKYYADSVKGRFTISRDNSKNTLFLQMNSLRTEDTAVYYCARGGDFDYWGQGTLVTVSS VL: DIQMTQSPSSLSASVGDRVTITCRASQDIRKDLGWYQQKPGKAPKRLIYAASSLHSGVPSRFSGSGSGTEFTLTISSLQPEDFATYYCLQHNSYPMYTFGQGTKLEIK	53	88	82	150	0.2	0.5	90	1	50	90	150	0.2	–	–	–	–	–	–	–	–
H1H6765P-DM1 (antibody, human IgG1, V domains shown, DM1 conjugated through SMCC linker; attachment residues not stated) VH: EVQLVESGGGVVRPGGSLRLSCVGSGFSFDDHGMNWVRQGPGKGLEWVSGFNWNGGSTNYAESVKGRFTISRDNARNSLFLQMNSLRAEDTALYYCVRGRSGWFNDAFDVWGPGTMVTVSS VL: EIVLTQSPGTLSLSPGERATLSCRASQTINSNYLAWYRQKPGQTPRLLIYGTSSRATGIPDRFSGSGSGTDFSLTISRLEPEDFAVFYCQQYAGLPTFGPGTKVDIK	71	81	83	90	0.1	0.3	90	1	70	90	150	0.3	70	0.57	84	68	78	0.18	150	1.63
H1H6765P-mc-VC-PAB-MMAE (antibody, human IgG1, V domains shown, MMAE conjugated through cleavable mc-vc-PAB linker; attachment residues not stated) VH: EVQLVESGGGVVRPGGSLRLSCVGSGFSFDDHGMNWVRQGPGKGLEWVSGFNWNGGSTNYAESVKGRFTISRDNARNSLFLQMNSLRAEDTALYYCVRGRSGWFNDAFDVWGPGTMVTVSS VL: EIVLTQSPGTLSLSPGERATLSCRASQTINSNYLAWYRQKPGQTPRLLIYGTSSRATGIPDRFSGSGSGTDFSLTISRLEPEDFAVFYCQQYAGLPTFGPGTKVDIK	38	86	85	150	0.2	0.4	90	1	40	90	150	0.2	–	–	–	–	–	–	–	–
H1H6953N-mc-VC-PAB-MMAE (antibody, human IgG1, V domains shown, MMAE conjugated through cleavable mc-vc-PAB linker; attachment residues not stated) VH: EVQLLESGGGLVQPGGTLRLSCAASGFTFSAYAMSWVRQAPGKGLEWVSSINVRAGDTYYADSVKGRFTISRDNSKNTLFLLMNSLRAEDTAAYYCAKARYSSNWGFDFWGQGTLVTVSS VL: DIVMTQSPDSLTVSLGARTTINCQSSQTILHSSNNHNYLAWYQQKPGLPPKLLIYWSSTRESGVPDRFSGSGSGTDFTLTISSLQAEDVAIYYCQQYSNTPYTFGQGTKLEIN	42	85	80	150	0.1	0.2	80	1	40	85	150	0.1	–	–	–	–	–	–	–	–
H1H6975N-DM1 (antibody, human IgG1, V domains shown, DM1 conjugated through SMCC linker; attachment residues not stated) VH: EVHLVESGGGLVQPGGSLRLSCAASGFTFSSYEMNWVRQTPGKGLEWISHISSRSVIIYYADSVKGRFTISRDNAKNSLFLQMNSLRAEDTAVYFCAGITIFGIPEYWGQGTLVTVSS VL: EIVLTQSPATLSLSPGERATLSCRASQSVSSYFAWYQQKPGQAPRLLIYDASSRATGIPTRFSGSGSGTDFTLTISSLEPEDFAVYYCQQRSSWPITFGQGTRLEIK	–	–	–	–	–	–	100	2	70	80	200	0.2	68	2.7	87	73	80	0.49	150	6.9
